In doi:10.1101/365775 (bioRxiv, 2018):

Biological target: the molecule itself
Assay: SEC

B1: Sec18_(His8) (natural protein, yeast, UniProt P18759 1-758, looked up)
chain: MFKIPGFGKAAANHTPPDMTNMDTRTRHLKVSNCPNNSYALANVAAVSPNDFPNNIYIIIDNLFVFTTRHSNDIPPGTIGFNGNQRTWGGWSLNQDVQAKAFDLFKYSGKQSYLGSIDIDISFRARGKAVSTVFDQDELAKQFVRCYESQIFSPTQYLIMEFQGHFFDLKIRNVQAIDLGDIEPTSAVATGIETKGILTKQTQINFFKGRDGLVNLKSSNSLRPRSNAVIRPDFKFEDLGVGGLDKEFTKIFRRAFASRIFPPSVIEKLGISHVKGLLLYGPPGTGKTLIARKIGTMLNAKEPKIVNGPEILSKYVGSSEENIRNLFKDAEAEYRAKGEESSLHIIIFDELDSVFKQRGSRGDGTGVGDNVVNQLLAKMDGVDQLNNILVIGMTNRKDLIDSALLRPGRFEVQVEIHLPDEKGRLQIFDIQTKKMRENNMMSDDVNLAELAALTKNFSGAEIEGLVKSASSFAINKTVNIGKGATKLNTKDIAKLKVTREDFLNALNDVTPAFGISEEDLKTCVEGGMMLYSERVNSILKNGARYVRQVRESDKSRLVSLLIHGPAGSGKTALAAEIALKSGFPFIRLISPNELSGMSESAKIAYIDNTFRDAYKSPLNILVIDSLETLVDWVPIGPRFSNNILQMLKVALKRKPPQDRRLLIMTTTSAYSVLQQMDILSCFDNEIAVPNMTNLDELNNVMIESNFLDDAGRVKVINELSRSCPNFNVGIKKTLTNIETARHDEDPVNELVELMTQSA
stoichiometry N: 6
